Test results reported in US20160151510A1.

What was measured:
[1] = molecular target: GLP-1 receptor on CHO-K1/GLP1/Gal5 cells; assay: cell-based or functional assay
[2] = molecular target: GLP-1 receptor (covalently immobilized to the Biacore biosensor surface); assay: Biacore SPR, GLP-1 receptor covalently immobilized, peptide injected

Row | Substance | EC50 of intracellular calcium mobilization (Calcium-4, FlexStation, RFU) [1] | Kd [2]
1 | 5 kDa-PEG-Cys(37)-GLP-1 (from UniProt P01275 27-56) (peptide) | 336 nM | 1600 nM
2 | GLP-1 (7-36) (from UniProt P01275 27-56) (peptide) | – | 1000 nM
